Legend:
[1] = target: firefly luciferase Fluc^A12C-K329C (Fluc^NDS1, N-terminal domain sensor) (firefly) [luciferase: P08659]; experiment: single-molecule FRET within the labelled client
[2] = target: firefly luciferase Fluc^K378C-K496C (Fluc^CDS1, C-terminal domain sensor) (firefly) [luciferase: P08659]; experiment: single-molecule FRET within the labelled client

percent of the time DnaK-bound (FRET < 0.3) after 15 min [1]: 15%
percent of the time DnaK-bound (FRET < 0.3) after 15 min [2]: 15%
Substance: DnaK (bacterial Hsp70) (from UniProt P0A6Y8 1-638) (natural protein)
